Measurements from patent publication US12319739 (F STAR DELTA, dated 2025).

T1: cMSLN-His-Avi (cynomolgus, single biotin on the Avi tag in the biotinylated form)
T1 construct: Monomeric; also called cyno MSLN-His-Avi; cMSLN-Avi-His
T1 chain: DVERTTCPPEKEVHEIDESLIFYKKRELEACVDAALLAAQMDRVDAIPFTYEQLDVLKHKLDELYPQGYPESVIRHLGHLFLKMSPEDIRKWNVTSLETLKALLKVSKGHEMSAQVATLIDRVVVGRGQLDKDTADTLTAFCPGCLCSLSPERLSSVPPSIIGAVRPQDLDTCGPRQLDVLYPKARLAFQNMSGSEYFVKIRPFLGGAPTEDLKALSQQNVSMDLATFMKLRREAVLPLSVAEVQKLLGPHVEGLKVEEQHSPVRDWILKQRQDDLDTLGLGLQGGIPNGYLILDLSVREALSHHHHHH


Columns and labels:
[1] = molecular target: T2, human CD137 on primary human CD8+ T cells (human, UniProt Q07011 24-255); assay: cell-based or functional assay
hMSLN-His-Avi [2] = molecular target: T3, hMSLN-His-Avi (human, UniProt Q13421 296-598, single biotin on the Avi tag in the biotinylated form); assay: ratio of SPR KDs
T3 construct: Monomeric; also called human MSLN-His-Avi; hMSLN-Avi-His
Description: (§1) 7.1 Binding of CD137/MSLN mAb2 to Human MSLN Under Avid Conditions—Antigen Capture Method Binding of all mAb^2 to MSLN immobilised on a BIAcore chip was tested to determine the binding affinity to human MSLN under avid conditions, where a high concentration of immobilised antigen is available to allow the antibody to bind avidly. […] The association time was 5 min and the dissociation time was 10 min. Running buffer was HBS-EP (GE Healthcare BR100188). Flow cells were regenerated by injecting Glycine-HCl pH1.5 at a flow rate of 30 μl/min for 30 seconds. Data were analysed by double referencing against a flow cell which was intentionally left blank (no antigen coating). The binding kinetics were fitted with a 1:1 Langmuir model to generate binding association (k_a) and dissociation (k_d) rates. Equilibrium binding constants (K_D) were calculated by dividing the dissociation rate by the association rate for each sample. Data analysis was performed with BiaEvaluation software version 3.2.
(§2) The association time was 5 min and the dissociation time was 5 min. Running buffer was HBS-EP (GE Healthcare BR100188). Flow cells were regenerated by injecting Glycine-HCl pH2.1 at a flow rate of 30 μl/min for 15 seconds. The data was analysed as described in Example 7.1.

hMSLN-His-Avi [3] = molecular target: T3, hMSLN-His-Avi; assay: SPR, mAb2 captured on Protein G, hMSLN-His-Avi in solution
Description: as §2

cMSLN-His-Avi = molecular target: T1, cMSLN-His-Avi; assay: SPR, mAb2 captured on Protein G, cMSLN-His-Avi in solution
Description: as §2

hMSLN-His-Avi [4] = molecular target: T3, hMSLN-His-Avi; assay: SPR, hMSLN-His-Avi immobilised ~100 RU, mAb2 injected
Description: as §1

[5] = molecular target: T4, endogenous cell surface human MSLN (human, UniProt Q13421 296-598); assay: flow cytometry, NCI-H226 cells
T4 construct: whole, on cells; The cell line is named under assay; also called cell-surface MSLN on NCI-H226, OVCAR-3 and AsPC-1 cells
Description: (§3) To confirm binding to cell surface MSLN, mAb² listed in Table 9 were analysed for binding to endogenous cell surface MSLN on the human lung cancer cell line NCI-H226. In addition, and because MSLN can be found in blood in a shed soluble form, there is a risk that this circulating MSLN might affect exposure and ultimately potency of our mAb². To confirm that presence of soluble MSLN has minimal impact, additional binding experiments to NCI-H226 cells were performed in the presence of 20 nM soluble MSLN which is 10-20 times the level of soluble MSLN found to be of diagnostic value for defining malignant mesothelioma and lung cancer patients as MSLN positive (Cui et al., 2014). Briefly, NCI-H226 cells (ATCC CRL-5826) were harvested from T175 cell culture flasks using Accutase (Gibco, A11105-01).
(§4) In both cases, cells were centrifuged at 1200 rpm for 3 min and resuspended in ice cold FACS buffer made up of DPBS (Life Technologies, 14190169) and 1% BSA (Sigma-Aldrich, A7906) at 2×10⁶ cells/ml and 50 μl per well was seeded in a 96-well V-bottom plate (Costar, 3894). All antibodies tested were diluted in FACS buffer in 120 μl at a concentration range of 0.01-200 nM (4-fold dilutions). The NCI-H226 cells were then centrifuged, supernatant removed and cells resuspended in 100 μl of each mAb dilution and incubated at 4° C. for 45 min. Cells were washed twice by centrifugation with 150 μl FACS buffer, resuspended in 100 μl containing goat anti-human IgG (γ-chain specific) F(ab')2 fragment-R-Phycoerythrin antibody (Sigma, P8047) diluted 1:1000 in FACS buffer and incubated at 4° C. for 45 min. The cells were washed once with 150 μl FACS buffer and then with 150 μl DPBS, resuspended in 150 μl DPBS containing DAPI (Biotium, 40043) at 1:10.000 and read on the BDCantoII or iQue (Intellicyt).

[6] = molecular target: T4, endogenous cell surface human MSLN; assay: flow cytometry, NCI-H226 cells + 20 nM soluble MSLN
Description: as §3, §4

[7] = molecular target: T2, human CD137 on primary human CD8+ T …; assay: cell-based or functional assay; remark: listed apart in the source

T3 sequence (Q13421 other isoform, or with tags, fused parts or gaps): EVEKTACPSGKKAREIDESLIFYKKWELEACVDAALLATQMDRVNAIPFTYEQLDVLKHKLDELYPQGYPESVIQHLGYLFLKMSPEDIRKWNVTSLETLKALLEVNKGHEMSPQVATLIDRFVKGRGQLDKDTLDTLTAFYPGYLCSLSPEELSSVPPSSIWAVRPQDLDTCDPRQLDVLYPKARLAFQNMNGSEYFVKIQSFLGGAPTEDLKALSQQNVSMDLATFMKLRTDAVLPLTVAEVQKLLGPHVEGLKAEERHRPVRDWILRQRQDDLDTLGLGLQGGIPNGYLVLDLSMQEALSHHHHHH
T4 sequence (Q13421 other isoform, or with tags, fused parts or gaps limits assumed): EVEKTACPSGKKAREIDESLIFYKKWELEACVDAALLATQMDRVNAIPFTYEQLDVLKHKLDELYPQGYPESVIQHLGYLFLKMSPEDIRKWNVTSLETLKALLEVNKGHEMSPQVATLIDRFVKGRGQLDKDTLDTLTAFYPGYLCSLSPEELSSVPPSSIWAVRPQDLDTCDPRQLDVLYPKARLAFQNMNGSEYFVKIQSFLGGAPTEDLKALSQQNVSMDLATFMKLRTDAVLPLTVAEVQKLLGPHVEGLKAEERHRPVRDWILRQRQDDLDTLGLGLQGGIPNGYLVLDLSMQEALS
T2 sequence (Q07011 24-255): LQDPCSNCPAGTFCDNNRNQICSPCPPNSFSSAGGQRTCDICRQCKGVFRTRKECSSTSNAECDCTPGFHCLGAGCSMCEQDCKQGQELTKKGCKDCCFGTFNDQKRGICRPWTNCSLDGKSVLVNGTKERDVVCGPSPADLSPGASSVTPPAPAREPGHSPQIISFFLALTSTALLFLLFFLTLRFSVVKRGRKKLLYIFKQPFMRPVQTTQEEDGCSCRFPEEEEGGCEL

Row | Binder | IL-2 release EC50, CD8+ T cell assay [1] [nM] | KD ratio in solution/immobilised human MSLN (hMSLN-His-Avi [2]) | Kd (hMSLN-His-Avi [3]) [nM] | Kd (cMSLN-His-Avi) [nM] | Kd (hMSLN-His-Avi [4]) [nM] | EC50 [5] [nM] | Emax (MFI) [5] [MFI] | EC50 [6] [nM] | Emax (MFI) [6] [MFI] | Emax (IL-2 pg/ml), NCI-H226 co-culture, Donor A [7] [pg/mL] | Emax (IL-2 pg/ml), NCI-H226 co-culture, Donor B [7] [pg/mL] | IL-2 release EC50, NCI-H226 co-culture, Donor A [7] [nM] | IL-2 release EC50, NCI-H226 co-culture, Donor B [7] [nM]
1 | 20H4.9 (antibody, V domains shown) VH: QVQLQQWGAGLLKPSETLSLTCAVYGGSFSGYYWSWIRQSPEKGLEWIGEINHGGYVTYNPSLESRVTISVDTSKNQFSLKLSSVTAADTAVYYCARDYGPGNYDWYFDLWGRGTLVTVSS VL: EIVLTQSPATLSLSPGERATLSCRASQSVSSYLAWYQQKPGQAPRLLIYDASNRATGIPARFSGSGSGTDFTLTISSLEPEDFAVYYCQQRSNWPPALTFGGGTKVEIKR | 0.5 |  |  |  |  |  |  |  |  |  |  |  | 
2 | FS22-172-003-AA/FS28-256 (bispecific antibody, human IgG1, kappa, L234A L235A, V domains shown, IgG1 mAb^2 with LALA) VH: EVQLLESGGGLVQPGGSLRLSCAASGFTFTNTYMSWVRQAPGKGLEWVSNISPTYSTTNYADSVKGRFTISRDNSKNTLYLQMNSLRAEDTAVYYCARYNSYQGGLDYWGQGTLVTVSS VL: EIVLTQSPGTLSLSPGERATLSCRASQSVSSSYLAWYQQKPGQAPRLLIYGASSRATGIPDRFSGSGSGTDFTLTISRLEPEDFAVYYCQQSYYYPITFGQGTKVEIKR |  | 34 | 1210 | 848 | 36 | 47.1 | 174000 | 52.9 | 200000 | 1260 | 8590 | 34 | 22.2
3 | FS22-172-003-AA/FS28-256-021 (bispecific antibody, human IgG1, kappa, L234A L235A, V domains shown, IgG1 mAb^2 with LALA) VH: EVQLLESGGGLVQPGGSLRLSCAASGFTFTHTYMSWVRQAPGKGLEWVSNISPTYSTTNYADSVKGRFTISRDNNKNTLYLQMNSLRAEDTAVYYCARYNAYHAALDYWGQGTLVTVSS VL: EIVLTQSPGTLSLSPGERATLSCRASQSVSSSYLAWYQQKPGQAPRLLIYGASSRATGIPDRFSGSGSGTDFTLTISRLEPEDFAVYYCQQHNQYPNTFGQGTKVEIKR |  | 9 | 19.6 | 14.2 | 2.3 | 4.02 | 689000 | 9.49 | 774000 | 1780 | 1000 | 0.06 | 0.04
4 | FS22-172-003-AA/FS28-256-023 (bispecific antibody, human IgG1, kappa, L234A L235A, V domains shown, IgG1 mAb^2 with LALA) VH: EVQLLESGGGLVQPGGSLRLSCAASGFTFTQTYMSWVRQAPGKGLEWVSNISPTYSTTNYADSVKGRFTISRDNSKNTLYLQMNSLRAEDTAVYYCARYNAYQIGLDYWGQGTLVTVSS VL: EIVLTQSPGTLSLSPGERATLSCRASQSVSSSYLAWYQQKPGQAPRLLIYGASSRATGIPDRFSGSGSGTDFTLTISRLEPEDFAVYYCQQHNQYPNTFGQGTKVEIKR |  | 18 | 56.2 | 44.2 | 3.09 | 1.29 | 618000 | 2.13 | 625000 | 1960 | 975 | 0.64 | 0.23
5 | FS22-172-003-AA/FS28-256-026 (bispecific antibody, human IgG1, kappa, L234A L235A, V domains shown, IgG1 mAb^2 with LALA) VH: EVQLLESGGGLVQPGGSLRLSCAASGFTFTQTYMSWVRQAPGKGLEWVSNISPTYSTTNYADSVKGRFTISRDNSKNTLYLQMNSLRAEDTAVYYCARYNAYQIGLDYWGQGTLVTVSS VL: EIVLTQSPGTLSLSPGERATLSCRASQSVSSSYLAWYQQKPGQAPRLLIYGASSRATGIPDRFSGSGSGTDFTLTISRLEPEDFAVYYCQQALGYPHTFGQGTKVEIKR |  | 18 | 57.9 | 33.1 | 3.19 | 1.47 | 634000 | 2.68 | 688000 | 2060 | 932 | 0.67 | 0.23
6 | FS22-172-003-AA/FS28-256-012 (bispecific antibody, human IgG1, kappa, L234A L235A, V domains shown, IgG1 mAb^2 with LALA) VH: EVQLLESGGGLVQPGGSLRLSCAASGFTFTHTYMSWVRQAPGKGLEWVSNISPTYSTTNYADSVKGRFTISRDNNKNTLYLQMNSLRAEDTAVYYCARYNAYHAALDYWGQGTLVTVSS VL: EIVLTQSPGTLSLSPGERATLSCRASQSVSSSYLAWYQQKPGQAPRLLIYGASSRATGIPDRFSGSGSGTDFTLTISRLEPEDFAVYYCQQSYYYPITFGQGTKVEIKR |  | 259 | 809 | 712 | 3.12 | 5.7 | 516000 | 6.36 | 486000 | 1550 | 1100 | 1.56 | 1.67
7 | FS22-172-003-AA/FS28-256-024 (bispecific antibody, human IgG1, kappa, L234A L235A, V domains shown, IgG1 mAb^2 with LALA) VH: EVQLLESGGGLVQPGGSLRLSCAASGFTFTHTYMSWVRQAPGKGLEWVSNISPTYSTTNYADSVKGRFTISRDNNKNTLYLQMNSLRAEDTAVYYCARYNAYHAALDYWGQGTLVTVSS VL: EIVLTQSPGTLSLSPGERATLSCRASQSVSSSYLAWYQQKPGQAPRLLIYGASSRATGIPDRFSGSGSGTDFTLTISRLEPEDFAVYYCQQALGYPHTFGQGTKVEIKR |  | 18 | 86.6 | 57.2 | 4.74 | 3.4 | 647000 | 5.24 | 675000 | 2120 | 1090 | 1.29 | 0.61
